Results taken from the supplement of paper PMC5998384.

Tests used:
HeLa Kyoto [1] = assay: solubility change mitosis vs G1/S (difference of NP-40 vs SDS log2 ratios) (log2 ratio difference); higher = more soluble in mitosis
HeLa Kyoto [2] = assay: thermal stability score vs G1/S (z-score of summed log2 fold changes over temperatures); higher = more thermally stable than in G1/S
HeLa Kyoto [3] = assay: melting temperature (median over replicates), in situ; higher = more thermally stable
HeLa Kyoto [4] = assay: solubility in G1/S (NP-40 vs SDS abundance) (log2 ratio); higher = more soluble; conditions: cell cycle stage: G1/S
[5] = cell cycle stage: early G1 (4.5 h after nocodazole release)
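Throughout, for melting temperature (median over replicates), in situ: HeLa Kyoto cells synchronized by double thymidine or nocodazole block, proteins quantified by TMT10plex mass spectrometry, three independent biological replicates.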
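Throughout, for solubility change mitosis vs G1/S (difference of NP-40 vs SDS log2 ratios): synchronized HeLa Kyoto cells (double thymidine block for G1/S, nocodazole release for mitosis), protein amounts in NP-40 versus SDS lysates quantified by mass spectrometry, three biological replicates.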
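Throughout, for solubility in G1/S (NP-40 vs SDS abundance): HeLa Kyoto cells arrested at G1/S by double thymidine block, proteins quantified by TMT10plex mass spectrometry in mild NP-40 versus SDS extracts, three biological replicates.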
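Throughout, for thermal stability score vs G1/S (z-score of summed log2 fold changes over temperatures): synchronized HeLa Kyoto cells, proteins quantified by TMT10plex mass spectrometry, three biological replicates, mitosis taken 0.5 h after nocodazole release, G1/S directly after double thymidine block.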

Substance	solubility change mitosis (log2) (HeLa Kyoto [1])	thermal stability score (HeLa Kyoto [2]; [5])	thermal stability score (HeLa Kyoto [2]; cell cycle stage: mitosis)	melting temperature (HeLa Kyoto [3]; cell cycle stage: G1/S) [°C]	melting temperature (HeLa Kyoto [3]; cell cycle stage: mitosis) [°C]	solubility in G1/S (log2) (HeLa Kyoto [4])
MAAIGVHLGCTSACVAVYKDGRAGVVANDAGDRVTPAVVAYSENEEIVGLAAKQSRIRNISNTVMKVKQILGRSSSDPQAQKYIAESKCLVIEKNGKLRYEIDTGEETKFVNPEDVARLIFSKMKETAHSVLGSDANDVVITVPFDFGEKQKNALGEAARAAGFNVLRLIHEPSAALLAYGIGQDSPTGKSNILVFKLGGTSLSLSVMEVNSGIYRVLSTNTDDNIGGAHFTETLAQYLASEFQRSFKHDVRGNARAMMKLTNSAEVAKHSLSTLGSANCFLDSLYEGQDFDCNVSRARFELLCSPLFNKCIEAIRGLLDQNGFTADDINKVVLCGGSSRIPKLQQLIKDLFPAVELLNSIPPDEVIPIGAAIEAGILIGKENLLVEDSLMIECSARDILVKGVDESGASRFTVLFPSGTPLPARRQHTLQAPGSISSVCLELYESDGKNSAKEETKFAQVVLQDLDKKENGLRDILAVLTMKRDGSLHVTCTDQETGKCEAISIEIAS [HSPA14]	-0.0832	1.14	3.27	48.4	48.4	0.167
MLFNSVLRQPQLGVLRNGWSSQYPLQSLLTGYQCSGNDEHTSYGETGVPVPPFGCTFSSAPNMEHVLAVANEEGFVRLYNTESQSFRKKCFKEWMAHWNAVFDLAWVPGELKLVTAAGDQTAKFWDVKAGELIGTCKGHQCSLKSVAFSKFEKAVFCTGGRDGNIMVWDTRCNKKDGFYRQVNQISGAHNTSDKQTPSKPKKKQNSKGLAPSVDFQQSVTVVLFQDENTLVSAGAVDGIIKVWDLRKNYTAYRQEPIASKSFLYPGSSTRKLGYSSLILDSTGSTLFANCTDDNIYMFNMTGLKTSPVAIFNGHQNSTFYVKSSLSPDDQFLVSGSSDEAAYIWKVSTPWQPPTVLLGHSQEVTSVCWCPSDFTKIATCSDDNTLKIWRLNRGLEEKPGGDKLSTVGWASQKKKESRPGLVTVTSSQSTPAKAPRAKCNPSNSSPSSAACAPSCAGDLPLPSNTPTFSIKTSPAKARSPINRRGSVSSVSPKPPSSFKMSIRNWVTRTPSSSPPITPPASETKIMSPRKALIPVSQKSSQAEACSESRNRVKRRLDSSCLESVKQKCVKSCNCVTELDGQVENLHLDLCCLAGNQEDLSKDSLGPTKSSKIEGAGTSISEPPSPISPYASESCGTLPLPLRPCGEGSEMVGKENSSPENKNWLLAMAAKRKAENPSPRSPSSQTPNSRRQSGKKLPSPVTITPSSMRKICTYFHRKSQEDFCGPEHSTEL [DTL]	-0.0846	-1.36	-1.25	50.4	50.1	-0.00542
MFAEAAKTTRPCGMAEFKEKPEAPTEQLDVACGQENLPVGAWPPGAAPAPFQYTPDHVVGPGADIDPTQITFPGCICVKTPCLPGTCSCLRHGENYDDNSCLRDIGSGGKYAEPVFECNVLCRCSDHCRNRVVQKGLQFHFQVFKTHKKGWGLRTLEFIPKGRFVCEYAGEVLGFSEVQRRIHLQTKSDSNYIIAIREHVYNGQVMETFVDPTYIGNIGRFLNHSCEPNLLMIPVRIDSMVPKLALFAAKDIVPEEELSYDYSGRYLNLTVSEDKERLDHGKLRKPCYCGAKSCTAFLPFDSSLYCPVEKSNISCGNEKEPSMCGSAPSVFPSCKRLTLETMKMMLDKKQIRAIFLFEFKMGRKAAETTRNINNAFGPGTANERTVQWWFKKFCKGDESLEDEERSGRPSEVDNDQLRAIIEADPLTTTREVAEELNVNHSTVVRHLKQIGKVKKLDKWVPHELTENQKNRRFEVSSSLILRNHNEPFLDRIVTCDEKWILYDNRRRSAQWLDQEEAPKHFPKPILHPKKVMVTIWWSAAGLIHYSFLNPGETITSEKYAQEIDEMNQKLQRLQLALVNRKGPILLHDNARPHVAQPTLQKLNELGYEVLPHPPYSPDLLPTNYHVFKHLNNFLQGKRFHNQQDAENAFQEFVESQSTDFYATGINQLISRWQKCVDCNGSYFD [SETMAR]	-0.0662	1.42	0.689	51.9	51.7	-0.0719
MSVGCACPGCSSKSFKLYSPKEPPNGNAFPPFHPGTMLDRDVGPTPMYPPTYLEPGIGRHTPYGNQTDYRIFELNKRLQNWTEECDNLWWDAFTTEFFEDDAMLTITFCLEDGPKRYTIGRTLIPRYFRSIFEGGATELYYVLKHPKEAFHSNFVSLDCDQGSMVTQHGKPMFTQVCVEGRLYLEFMFDDMMRIKTWHFSIRQHRELIPRSILAMHAQDPQMLDQLSKNITRCGLSNSTLNYLRLCVILEPMQELMSRHKTYSLSPRDCLKTCLFQKWQRMVAPPAEPTRQQPSKRRKRKMSGGSTMSSGGGNTNNSNSKKKSPASTFALSSQVPDVMVVGEPTLMGGEFGDEDERLITRLENTQFDAANGIDDEDSFNNSPALGANSPWNSKPPSSQESKSENPTSQASQ [LDB1]	-0.0611	-3.74	-2.44	54.2	55.8	-0.0659
MREYKLVVLGSGGVGKSALTVQFVQGIFVEKYDPTIEDSYRKQVEVDCQQCMLEILDTAGTEQFTAMRDLYMKNGQGFALVYSITAQSTFNDLQDLREQILRVKDTEDVPMILVGNKCDLEDERVVGKEQGQNLARQWCNCAFLESSAKSKINVNEIFYDLVRQINRKTPVEKKKPKKKSCLLL [RAP1A]	-0.0963	1.29	-0.46	58.5	57.6	0.0631
BTAF1	-0.118	0.553	1.71	50	50.1	-0.142
